Experimental data: US20220081485A1 (BEIJING WISDOMAB BIOTECHNOLOGY, published 2022)
Positions count from the first letter of the chain named. Read-outs that look alike come from different tables or passages of the source.

T1: mmIL4R-mFc (Macaca mulatta IL-4R extracellular domain fused to murine IgG2a Fc) (Macaca mulatta)
T1 chain: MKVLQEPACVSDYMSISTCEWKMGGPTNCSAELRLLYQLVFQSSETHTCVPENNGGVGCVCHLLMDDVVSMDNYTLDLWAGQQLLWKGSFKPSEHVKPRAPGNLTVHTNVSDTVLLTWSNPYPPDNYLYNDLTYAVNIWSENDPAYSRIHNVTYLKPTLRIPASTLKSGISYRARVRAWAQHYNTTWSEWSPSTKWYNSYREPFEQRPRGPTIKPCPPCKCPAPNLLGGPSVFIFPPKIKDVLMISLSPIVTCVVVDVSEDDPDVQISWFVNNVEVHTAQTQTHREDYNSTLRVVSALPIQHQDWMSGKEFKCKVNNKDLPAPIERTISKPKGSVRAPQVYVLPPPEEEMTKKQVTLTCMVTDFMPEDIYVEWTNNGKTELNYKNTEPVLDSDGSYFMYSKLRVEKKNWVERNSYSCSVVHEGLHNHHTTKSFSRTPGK

T2: human IL-4R on cells (HEK-Blue IL-4/IL-13 cells, TF-1 cells, human PBMCs) (human, UniProt P24394 26-825)
T2 sequence (looked up): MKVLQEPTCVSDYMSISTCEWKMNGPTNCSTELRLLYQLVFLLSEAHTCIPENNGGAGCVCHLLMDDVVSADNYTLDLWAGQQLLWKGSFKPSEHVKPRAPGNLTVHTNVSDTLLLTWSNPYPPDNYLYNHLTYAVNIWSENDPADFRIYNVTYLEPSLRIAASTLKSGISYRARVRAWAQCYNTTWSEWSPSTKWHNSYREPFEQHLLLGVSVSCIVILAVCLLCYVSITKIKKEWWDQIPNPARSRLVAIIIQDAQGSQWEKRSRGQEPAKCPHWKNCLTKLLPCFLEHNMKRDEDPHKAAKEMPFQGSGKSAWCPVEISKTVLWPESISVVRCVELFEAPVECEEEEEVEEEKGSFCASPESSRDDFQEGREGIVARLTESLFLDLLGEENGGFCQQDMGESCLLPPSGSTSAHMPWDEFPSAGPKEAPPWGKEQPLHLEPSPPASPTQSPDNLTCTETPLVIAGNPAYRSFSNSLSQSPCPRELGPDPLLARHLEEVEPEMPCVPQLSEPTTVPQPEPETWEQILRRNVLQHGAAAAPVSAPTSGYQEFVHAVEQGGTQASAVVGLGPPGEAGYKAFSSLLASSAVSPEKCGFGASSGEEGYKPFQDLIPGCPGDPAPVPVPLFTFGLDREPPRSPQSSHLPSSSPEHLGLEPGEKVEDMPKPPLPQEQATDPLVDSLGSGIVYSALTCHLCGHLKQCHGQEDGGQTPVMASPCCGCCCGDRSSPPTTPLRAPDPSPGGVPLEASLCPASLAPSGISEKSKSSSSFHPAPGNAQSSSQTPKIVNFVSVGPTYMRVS

T3: recombinant hIL4R-his (human IL-4R extracellular domain with C-terminal His tag) (human (Homo sapiens), UniProt P24394 26-232)
T3 construct: The tag was added at the C-terminus; The protein was expressed in HEK293 cells; also called huIL4R
T3 sequence: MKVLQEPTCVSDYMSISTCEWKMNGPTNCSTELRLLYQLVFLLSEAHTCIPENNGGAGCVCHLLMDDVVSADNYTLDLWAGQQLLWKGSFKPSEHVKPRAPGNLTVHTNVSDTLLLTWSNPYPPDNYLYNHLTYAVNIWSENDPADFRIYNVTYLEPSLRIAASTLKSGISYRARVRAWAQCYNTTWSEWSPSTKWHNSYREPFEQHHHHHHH

B1: L18D7-IgG4 (antibody, V domains shown)
VH: EVQLVESGGGLVQPGGSLRLSCAVSGFTFSSYAMSWVRQAPGKGLEWVSSITGGGGGIYYADSVKGRFTISRDNSKNTVYLQMNSLRAEDTAVYYCAKDRISITIRPRYFGLDFWGQGTTVTVSS
VL: DIVMTQSPLSLPVTPGEPASISCRSSQSLLYSIGYNYLDWYLQKSGQSPQLLIYLGSNRASGVPDRFSGSGSGTDFTLKISRVEAEDVGFYYCMQSFKAPYTFGQGTKLEIKR
notes: also called S1E6 light chain mutant L18D7
B2: L10C2-IgG4 (antibody, V domains shown)
VH: B1 VH
VL: DIVMTQSPLSLPVTAGAPASISCRSSQSLLYSNGYNYLDWYMQKPGQSPQLLIYLGSNRASGVPDRFSGSGSGTDFTLKISRVEAEDVGVYYCMQALETPYAFGQGTKVEIKR
notes: also called S1E6 light chain mutant L10C2
B3: L28C9-IgG4 (antibody, V domains shown)
VH: B1 VH
VL: B1 VL with S28N, L29V, L30V, S32G, I33N, S57N, R59V, S61A, F97L
notes: also called S1E6 light chain mutant L28C9

Legend:
[1] = molecular target: T1, mmIL4R-mFc (Macaca mulatta IL-4R …); assay: SPR Biacore X100, antibody captured, mmIL4R-mFc as analyte
Description: (§1) The affinity of each anti-IL4R IgG4 chimeric antibody was determined using Biacore X100. Amino coupling kits, human antibody capture kits, CM5 chips, 1× HBS-EP (pH 7.4) and all reagents used in this assay were purchased from GE Healthcare. According to the instructions in the kits, an antibody against the human Fc region was coupled to the surface of the CM5 chip using an amino coupling method, and antibody proteins were diluted to appropriate concentrations to ensure that about 100 RU of the antibodies was captured by the antibody against the human Fc. IL4R-his was set to a series of concentration gradients (100 nm, 33.3 nm, 11.1 nm, 3.7 nm, 1.23 nm) and flew through the surface of the stationary phase.
Similarly, anti-IL4R monoclonal antibodies were captured and mmIL4R-mFc was set to a series of concentration gradient (50 nm, 16.7 nm, 5.56 nm, […], 0.62 nm).

[2] = molecular target: T2, human IL-4R on cells (HEK-Blue …); assay: cell-based or functional assay
[3] = molecular target: T4, IL4R-mFc (human IL-4R extracellular domain fused to murine IgG2a Fc) (human (Homo sapiens)); assay: blocking ELISA: antibody gradient with IL4-his at a fixed concentration on coated IL4R-mFc; bound IL4-his detected with HRP-mouse-anti-his IgG
T4 construct: also called antigen IL4R-mFc
Description: (§2) 96 well plates were coated with antigen IL4R-mFc (3 μg/ml, 100 μI/well) overnight at 4° C.

[4] = molecular target: T3, recombinant hIL4R-his (human IL-4R …); assay: SPR Biacore X100, antibody captured by anti-human Fc, IL4R-his as analyte, 25 C
Description: as §1

[5] = molecular target: T2, human IL-4R on cells (HEK-Blue …); assay: cell-based or functional assay; remark: listed apart in the source
[6] = molecular target: T2, human IL-4R on cells (HEK-Blue …); assay: cell-based or functional assay; remark: listed apart in the source
[7] = molecular target: T2, human IL-4R on cells (HEK-Blue …); assay: cell-based or functional assay; remark: listed apart in the source
[8] = molecular target: T2, human IL-4R on cells (HEK-Blue …); assay: cell-based or functional assay; remark: listed apart in the source
[9] = molecular target: T2, human IL-4R on cells (HEK-Blue …); assay: cell-based or functional assay; remark: listed apart in the source
[10] = molecular target: T2, human IL-4R on cells (HEK-Blue …); assay: cell-based or functional assay; remark: listed apart in the source
[11] = molecular target: T3, recombinant hIL4R-his (human IL-4R …); assay: SPR Biacore X100, antibody captured by anti-human Fc, IL4R-his as analyte, 25 C; remark: listed apart in the source
Description: as §1

[12] = molecular target: T4, IL4R-mFc (human IL-4R extracellular …); assay: blocking ELISA: antibody gradient with IL4-his at a fixed concentration on coated IL4R-mFc; bound IL4-his detected with HRP-mouse-anti-his IgG; remark: listed apart in the source
Description: as §2

Kd [1] | koff [1] | kon [1] | IC50 values in inhibition of IL-4 (IL-4 induced proliferation of TF-1 cells, CellTiter-Glo) [2] | IC50 (read off the curve) [3] | Kd [4] | koff [4] | kon [4] | IC50 values in inhibition of CD23 expression on human PBMCs (IL-4 stimulated, flow cytometry) [5] | IC50 values in inhibition of IL-13 (SEAP, HEK-Blue IL-4/IL-13 cells) [6] | IC50 values in inhibition of IL-4 (SEAP, HEK-Blue IL-4/IL-13 cells) [7] | IC50 values in inhibition of IL-4 (SEAP, HEK-Blue IL-4/IL-13 cells) [8] | IC50 values in inhibition of IL-13 (SEAP, HEK-Blue IL-4/IL-13 cells) [9] | fold of IC50 in inhibition of IL-4 against L10B2 (HEK-Blue IL-4/IL-13 cells) [10] | fold of IC50 in inhibition of IL-13 against L10B2 (HEK-Blue IL-4/IL-13 cells) [10] | Kd [11] | koff [11] | kon [11] | IC50 (read off the curve) [12] | fold of IC50 in inhibition of IL-4 induced CD23 expression on PBMCs against L18D7 [10] | Binder
1.67 nM | 0.000984 s⁻¹ | 590000 M⁻¹ s⁻¹ | 0.116 nM | ~10 nM | 0.48 nM | 0.000143 s⁻¹ | 297000 M⁻¹ s⁻¹ | 0.0268 nM | 0.0102 nM | 0.0484 nM |  |  |  |  |  |  |  |  |  | B1
 |  |  |  |  |  |  |  |  |  |  | 0.333 nM | 0.0314 nM | 1.6 fold | 2.4 fold | 0.874 nM | 0.000309 s⁻¹ | 353000 M⁻¹ s⁻¹ | ~8 nM |  | B2
8.4 nM | 0.00594 s⁻¹ | 706000 M⁻¹ s⁻¹ | 0.129 nM | ~4 nM | 0.586 nM | 0.000194 s⁻¹ | 331000 M⁻¹ s⁻¹ | 0.0635 nM | 0.0121 nM | 0.0494 nM |  |  |  |  |  |  |  |  | 2.3 fold | B3
